From article doi:10.1101/2020.11.17.387225

Experiments:
[1] = biological target: EccD5 (Mycobacterium xenopi); assay: cryo-EM structure
[2] = biological target: EccB5 (Mycobacterium xenopi); assay: cryo-EM structure

| Substance | stoichiometry N [1] | stoichiometry N [2] |
| --- | --- | --- |
| EccD5 (natural protein) | 2 |  |
| EccB5 (natural protein) |  | 6 |
